B1: SI-68P13 (other)
chain 1: EIVLTQSPSTLSVSPGERATFSCRASQSIGTNIHWYQQKPGKPPRLLIKYASESISGIPDRFSGSGSGTEFTLTISSVQSEDFAVYYCQQNNNWPTTFGPGTKLTVLGGGGSGGGGSGGGGSGGGGSQVQLQQSGPGLVKPSETLSITCTVSGFSLTNYGVHWIRQAPGKGLEWLGVIWSGGNTDYNTPFTSRFTITKDNSKNQVYFKLRSVRADDTAIYYCARALTYYDYEFAYWGQGTLVTVSSGGGGSGGGGSEVQLVESGGGLVQPGGSLRLSCAASGFTISTNAMSWVRQAPGKGLEWIGVITGRDITYYASWAKGRFTISRDNSKNTLYLQMNSLRAEDTAVYYCARDGGSSAITSNNIWGQGTLVTVSSASTKGPSVFPLAPSSKSTSGGTAALGCLVKDYFPEPVTVSWNSGALTSGVHTFPAVLQSSGLYSLSSVVTVPSSSLGTQTYICNVNHKPSNTKVDKRVEPKSCDKTHTCPPCPAPEAAGGPSVFLFPPKPKDTLMISRTPEVTCVVVDVSHEDPEVKFNWYVDGVEVHNAKTKPREEQYNSTYRVVSVLTVLHQDWLNGKEYKCAVSNKALPAPIEKTISKAKGQPREPQVYTLPPSRDELTKNQVSLSCAVKGFYPSDIAVEWESNGQPENNYKTTPPVLDSDGSFFLVSKLTVDKSRWQQGNVFSCSVMHEALHNHYTQKSLSLSPGGGGGSGGGGSDVVMTQSPSSVSASVGDRVTITCQASQNIRTYLSWYQQKPGKAPKLLIYAAANLASGVPSRFSGSGSGTDFTLTISDLEPGDAATYYCQSTYLGTDYVGGAFGGGTKLTVLGGGGSGGGGSGGGGSGGGGSEVQLVESGGGLVQPGGSLRLSCTASGFTISSYHMQWVRQAPGKGLEYIGTISSGGNVYYASSARGRFTISRPSSKNTVDLQMNSLRAEDTAVYYCARDSGYSDPMWGQGTLVTVSS
chain 2: ENVLTQSPASLSASPGERVTITCSASSSVSYMHWYQQKPGQAPKLWIYDTSKLASGVPSRFSGSGSGNDHTLTISSMEPEDFATYYCFQGSVYPFTFGQGTKVTVLGGGGSGGGGSGGGGSGGGGSQVTLKESGPGLVQPGQTLSLTCAFSGFSLSTSGMGVGWIRQPPGKGLEWLAHIWWDDDKRYNPALKSRLTISKDTSKNQVYLQMNSLDAEDTAVYYCARMELWSYYFDYWGQGTLVTVSSGGGGSGGGGSDVVMTQSPSTLSASVGDRVTINCQASESISSWLAWYQQKPGKAPKLLIYEASKLASGVPSRFSGSGSGTEFTLTISSLQPDDFATYYCQGYFYFISRTYVNSFGGGTKVEIKRTVAAPSVFIFPPSDEQLKSGTASVVCLLNNFYPREAKVQWKVDNALQSGNSQESVTEQDSKDSTYSLSSTLTLSKADYEKHKVYACEVTHQGLSSPVTKSFNRGECGGDKTHTCPPCPAPEAAGGPSVFLFPPKPKDTLMISRTPEVTCVVVDVSHEDPEVKFNWYVDGVEVHNAKTKPREEQYNSTYRVVSVLTVLHQDWLNGKEYKCAVSNKALPAPIEKTISKAKGQPREPQVYTLPPSRDELTKNQVSLWCLVKGFYPSDIAVEWESNGQPENNYKTTPPVLDSDGSFFLYSKLTVDKSRWQQGNVFSCSVMHEALHNRFTQKSLSLSPGGGGGSGGGGSDIQMTQSPSTLSASVGDRVTITCQASQSISSHLNWYQQKPGKAPKLLIYKASTLASGVPSRFSGSGSGTEFTLTISSLQPDDFATYYCQQGYSWGNVDNVFGGGTKVTVLGGGGSGGGGSGGGGSGGGGSEVQLLESGGGLVQPGGSLSLSCAASGFSFSSGYDMCWVRQAPGKGLEWIACIAAGSAGITYDANWAKGRFTISRDNSKNTLYLQMNSLRAEDTAVYYCARSAFSFDYAMDLWGQGTLVTVSS
notes: penta-miniGNC; D1 αEGFR, D2 αCD19, D3 αCD3 (Fab), D4 α4-1BB, D5 αPD-L1
B2: SI-68P17 (other)
chain 1: DVVMTQSPSTLSASVGDRVTINCQASESISSWLAWYQQKPGKAPKLLIYEASKLASGVPSRFSGSGSGTEFTLTISSLQPDDFATYYCQGYFYFISRTYVNSFGGGTKVEIKGGGGSGGGGSGGGGSGGGGSEVQLVESGGGLVQPGGSLRLSCAASGFTISTNAMSWVRQAPGKGLEWIGVITGRDITYYASWAKGRFTISRDNSKNTLYLQMNSLRAEDTAVYYCARDGGSSAITSNNIWGQGTLVTVSSGGGGSGGGGSQVQLQQSGPGLVKPSETLSITCTVSGFSLTNYGVHWIRQAPGKGLEWLGVIWSGGNTDYNTPFTSRFTITKDNSKNQVYFKLRSVRADDTAIYYCARALTYYDYEFAYWGQGTLVTVSSASTKGPSVFPLAPSSKSTSGGTAALGCLVKDYFPEPVTVSWNSGALTSGVHTFPAVLQSSGLYSLSSVVTVPSSSLGTQTYICNVNHKPSNTKVDKRVEPKSCDKTHTCPPCPAPEAAGGPSVFLFPPKPKDTLMISRTPEVTCVVVDVSHEDPEVKFNWYVDGVEVHNAKTKPREEQYNSTYRVVSVLTVLHQDWLNGKEYKCAVSNKALPAPIEKTISKAKGQPREPQVYTLPPSRDELTKNQVSLSCAVKGFYPSDIAVEWESNGQPENNYKTTPPVLDSDGSFFLVSKLTVDKSRWQQGNVFSCSVMHEALHNHYTQKSLSLSPGGGGGSGGGGSDVVMTQSPSSVSASVGDRVTITCQASQNIRTYLSWYQQKPGKAPKLLIYAAANLASGVPSRFSGSGSGTDFTLTISDLEPGDAATYYCQSTYLGTDYVGGAFGGGTKLTVLGGGGSGGGGSGGGGSGGGGSEVQLVESGGGLVQPGGSLRLSCTASGFTISSYHMQWVRQAPGKGLEYIGTISSGGNVYYASSARGRFTISRPSSKNTVDLQMNSLRAEDTAVYYCARDSGYSDPMWGQGTLVTVSS
chain 2: ENVLTQSPASLSASPGERVTITCSASSSVSYMHWYQQKPGQAPKLWIYDTSKLASGVPSRFSGSGSGNDHTLTISSMEPEDFATYYCFQGSVYPFTFGQGTKVTVLGGGGSGGGGSGGGGSGGGGSQVTLKESGPGLVQPGQTLSLTCAFSGFSLSTSGMGVGWIRQPPGKGLEWLAHIWWDDDKRYNPALKSRLTISKDTSKNQVYLQMNSLDAEDTAVYYCARMELWSYYFDYWGQGTLVTVSSGGGGSGGGGSEIVLTQSPSTLSVSPGERATFSCRASQSIGTNIHWYQQKPGKPPRLLIKYASESISGIPDRFSGSGSGTEFTLTISSVQSEDFAVYYCQQNNNWPTTFGPGTKLTVLRTVAAPSVFIFPPSDEQLKSGTASVVCLLNNFYPREAKVQWKVDNALQSGNSQESVTEQDSKDSTYSLSSTLTLSKADYEKHKVYACEVTHQGLSSPVTKSFNRGECGGDKTHTCPPCPAPEAAGGPSVFLFPPKPKDTLMISRTPEVTCVVVDVSHEDPEVKFNWYVDGVEVHNAKTKPREEQYNSTYRVVSVLTVLHQDWLNGKEYKCAVSNKALPAPIEKTISKAKGQPREPQVYTLPPSRDELTKNQVSLWCLVKGFYPSDIAVEWESNGQPENNYKTTPPVLDSDGSFFLYSKLTVDKSRWQQGNVFSCSVMHEALHNRFTQKSLSLSPGGGGGSGGGGSDIQMTQSPSTLSASVGDRVTITCQASQSISSHLNWYQQKPGKAPKLLIYKASTLASGVPSRFSGSGSGTEFTLTISSLQPDDFATYYCQQGYSWGNVDNVFGGGTKVTVLGGGGSGGGGSGGGGSGGGGSEVQLLESGGGLVQPGGSLSLSCAASGFSFSSGYDMCWVRQAPGKGLEWIACIAAGSAGITYDANWAKGRFTISRDNSKNTLYLQMNSLRAEDTAVYYCARSAFSFDYAMDLWGQGTLVTVSS
notes: penta-miniGNC; D1 αCD3, D2 αCD19, D3 αEGFR (Fab), D4 α4-1BB, D5 αPD-L1
B3: SI-68P15 (other)
chain 1: EIVMTQSPSTLSASVGDRVIITCQASESISSWLAWYQQKPGKAPKLLIYEASKLASGVPSRFSGSGSGAEFTLTISSLQPDDFATYYCQGYFYFISRTYVNSFGQGTKLTVLGGGGSGGGGSGGGGSGGGGSEVQLVESGGGLVQPGGSLRLSCAASGFTISTNAMSWVRQAPGKGLEWVGVITGRDITYYASWAKGRFTISRDTSKNTVYLQMNSLRAEDTAVYYCARDGGSSAITSNNIWGQGTLVTVSSGGGGSGGGGSQVQLQQSGPGLVKPSETLSITCTVSGFSLTNYGVHWIRQAPGKGLEWLGVIWSGGNTDYNTPFTSRFTITKDNSKNQVYFKLRSVRADDTAIYYCARALTYYDYEFAYWGQGTLVTVSSASTKGPSVFPLAPSSKSTSGGTAALGCLVKDYFPEPVTVSWNSGALTSGVHTFPAVLQSSGLYSLSSVVTVPSSSLGTQTYICNVNHKPSNTKVDKRVEPKSCDKTHTCPPCPAPEAAGGPSVFLFPPKPKDTLMISRTPEVTCVVVDVSHEDPEVKFNWYVDGVEVHNAKTKPREEQYNSTYRVVSVLTVLHQDWLNGKEYKCAVSNKALPAPIEKTISKAKGQPREPQVYTLPPSRDELTKNQVSLSCAVKGFYPSDIAVEWESNGQPENNYKTTPPVLDSDGSFFLVSKLTVDKSRWQQGNVFSCSVMHEALHNHYTQKSLSLSPGGGGGSGGGGSDVVMTQSPSSVSASVGDRVTITCQASQNIRTYLSWYQQKPGKAPKLLIYAAANLASGVPSRFSGSGSGTDFTLTISDLEPGDAATYYCQSTYLGTDYVGGAFGGGTKLTVLGGGGSGGGGSGGGGSGGGGSEVQLVESGGGLVQPGGSLRLSCTASGFTISSYHMQWVRQAPGKGLEYIGTISSGGNVYYASSARGRFTISRPSSKNTVDLQMNSLRAEDTAVYYCARDSGYSDPMWGQGTLVTVSS
chain 2: B2 chain 2
notes: penta-miniGNC; D1 αCD3** (humanized framework 1), D2 αCD19, D3 αEGFR (Fab), D4 α4-1BB, D5 αPD-L1

How the values were obtained:
CD19 = target: T1, CD19 (UniProt P15391 20-291, limits assumed); test: BLI (Octet), binder on AHC sensor; antigen conditions not stated
T1 sequence (looked up): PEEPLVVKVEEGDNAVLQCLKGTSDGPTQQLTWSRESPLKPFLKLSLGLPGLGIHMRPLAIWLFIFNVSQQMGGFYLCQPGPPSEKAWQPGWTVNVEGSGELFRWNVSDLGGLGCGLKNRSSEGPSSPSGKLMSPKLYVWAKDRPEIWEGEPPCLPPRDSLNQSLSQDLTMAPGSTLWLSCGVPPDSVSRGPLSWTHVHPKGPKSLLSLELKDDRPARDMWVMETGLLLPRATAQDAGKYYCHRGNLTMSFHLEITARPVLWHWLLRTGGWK

human PD-L1 = target: T2, human PD-L1 (human, UniProt Q9NZQ7 19-238); test: as above
T2 construct: Soluble antigen in Octet; bought; also called human PD-L1 (Acro PD1-H5229)

human 4-1BB = target: T3, human 4-1BB (human, UniProt Q07011 24-186, limits assumed); test: as above
T3 construct: Soluble antigen in Octet; construct not described

human CD3 = target: T4, human CD3 (human, UniProt P07766 23-126; P04234 22-105); test: BLI (Octet), binder on AHC sensor, His-tagged human CD3 (series from 200 nM or single 100 nM), 1:1 fit
T4 construct: also called His-tagged human CD3; human CD3 (Acro CDD-H52W1)

| Binder | Kd (CD19) [µM] | Kd (human PD-L1) [µM] | Kd (human 4-1BB) [µM] | Kd (human CD3) [µM] |
| --- | --- | --- | --- | --- |
| B1 | 0.00433 | 0.00104 | 0.0148 | 0.0259 |
| B2 | 0.00505 | 0.00272 | 0.0268 | 0.0158 |
| B3 | – | 0.0004 | 0.0171 | 0.0224 |
